Data as given in publication PMC10371346, “Modeling of ACE2 and antibodies bound to SARS-CoV-2 provides insights into infectivity and immune evasion” (JCI Insight, 2023).

Biological target: T1, recombinant His-tagged wild-type SARS-CoV-2 Spike trimer (SARS-CoV-2, Wuhan-Hu-1 (wild-type), UniProt P0DTC2)
T1 construct: also called wild-type Spike trimer; wild-type Spike
Assay: flow cytometry on cells; Cas1-CAR-NK92MI cells displaying the scFv-CAR incubated with recombinant His-tagged Spike trimer in PBS with 0.5 mM CaCl2 and 0.9 mM MgCl2, 1 hour at 4°C under gentle agitation; washed, stained with PE anti-His and Alexa Fluor 647 anti-human IgG (H+L); parental NK92MI as negative and 293T-hACE2 as positive control
Details: one partner purified

B1: REGN10933 (casirivimab) single chain variable fragment displayed as a chimeric antigen receptor on NK92MI cells (scFv, V domains shown)
VH: QVQLVESGGGLVKPGGSLRLSCAASGFTFSDYYMSWIRQAPGKGLEWVSYITYSGSTIYYADSVKGRFTISRDNAKSSLYLQMNSLRAEDTAVYYCARDRGTTMVPFDYWGQGTLVTVSS
VL: DIQMTQSPSSLSASVGDRVTITCQASQDITNYLNWYQQKPGKAPKLLIYAASNLETGVPSRFSGSGSGTDFTFTISGLQPEDIATYYCQQYDNLPLTFGGGTKVEIK
notes: scFv domain of casirivimab (REGN10933); the variable domains are those of REGN10933 in PDB 6XDG; rest of the chimeric antigen receptor (hinge, transmembrane and signalling parts); also called Cas1-CAR; Cas1
B1: binds.
